In patent US20230159645A1 (MERUS N V, published 2023):

Columns and labels:
human TGF-βRII [1] = target: T1, human TGF-βRII (human, UniProt P37173 23-567); experiment: cell-based or functional assay
T1 chain: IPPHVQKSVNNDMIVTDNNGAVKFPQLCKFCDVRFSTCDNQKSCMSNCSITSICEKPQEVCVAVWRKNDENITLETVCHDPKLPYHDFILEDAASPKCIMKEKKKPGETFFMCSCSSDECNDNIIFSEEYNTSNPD

human TGF-βRII [2] = target: T1, human TGF-βRII; experiment: cell-based or functional assay

B1: Reference TGF-βRII antibody TGF1 analog (antibody, human IgG1, kappa, V domains shown)
VH: QLQVQESGPGLVKPSETLSLTCTVSGGSISNSYFSWGWIRQPPGKGLEWIGSFYYGEKTYYNPSLKSRATISIDTSKSQFSLKLSSVTAADTAVYYCPRGPTMIRGVIDSWGQGTLVTVSS
VL: EIVLTQSPATLSLSPGERATLSCRASQSVRSYLAWYQQKPGQAPRLLIYDASNRATGIPARFSGSGSGTDFTLTISSLEPEDFAVYYCQQRSNWPPTFGQGTKVEIKR
Q: How did the “HEK-BLUE-PD-1 TGF-β Reporter Assay, HEK-Blue TGF-β cells” value (human TGF-βRII [1]) turn out when B1 was run?
A: The value was 0.806.

Q: And the “HEK-BLUE-PD-1 TGF-β Reporter Assay, HEK-Blue TGF-β-PD-1+ cells” value (human TGF-βRII [1])?
A: The value was 0.655.

Q: What about the “Fold difference pSMAD PD-1^null vs PD-1^+” value (human TGF-βRII [2]) of the same binder?
A: Its value is 1.3 fold.
